# Test results published in patent US20250164508A1, “G-PROTEIN COUPLED RECEPTOR ASSAY” (The Regents of the University of Michigan, priority 2022, published 2025).
# Square brackets hold non-standard residues; d marks the D form. Ends that are not written are not given here. Cha = N[C@@H](CC1CCCCC1)C(=O)O
# B1: Nb80-LgBit (Nanobody 80 fused to LgBit) (VHH, from another filing)
# VHH: QVQLQESGGGLVQAGGSLRLSCAASGSIFSINTMGWYRQAPGKQRELVAAIHSGGSTNYANSVKGRFTISRDNAANTVYLQMNSLKPEDTAVYYCNVKDYGAVLYEYDYWGQGTQVTVSS
# What was measured:
# [1] = target: MOR-SmBit (Mu-opioid receptor with SmBit attached to the C-terminus) (UniProt P35372); test: in-solution split NANOLUC complementation, separately expressed components, with and without loperamide
# Chain of MOR-SmBit (Mu-opioid receptor with SmBit attached to the C-terminus) (P35372 1-400, tags or fused parts left off): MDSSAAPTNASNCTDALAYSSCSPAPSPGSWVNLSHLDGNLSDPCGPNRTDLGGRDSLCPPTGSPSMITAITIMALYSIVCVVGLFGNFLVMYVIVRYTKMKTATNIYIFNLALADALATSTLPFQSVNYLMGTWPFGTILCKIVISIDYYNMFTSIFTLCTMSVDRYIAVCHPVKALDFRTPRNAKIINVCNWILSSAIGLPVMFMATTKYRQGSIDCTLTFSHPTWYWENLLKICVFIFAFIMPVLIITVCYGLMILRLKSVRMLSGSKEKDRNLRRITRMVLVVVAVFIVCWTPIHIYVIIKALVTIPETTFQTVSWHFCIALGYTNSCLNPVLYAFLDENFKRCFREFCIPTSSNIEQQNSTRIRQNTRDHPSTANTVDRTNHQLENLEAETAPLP
# [2] = target: MOR-SmBit (Mu-opioid receptor with SmBit attached to the C-terminus) (UniProt P35372); test: in-solution split NANOLUC complementation, co-expressed components, with and without loperamide
# [3] = target: Melanocortin-4 Receptor (MC4R) (Homo sapiens, UniProt P32245); test: MC4R IGNiTR assay; details: Gs fusion peptide 2 μM; drug 10 μM
# Chain of Melanocortin-4 Receptor (MC4R) (P32245 whole entry, species assumed, the tested form may be a part): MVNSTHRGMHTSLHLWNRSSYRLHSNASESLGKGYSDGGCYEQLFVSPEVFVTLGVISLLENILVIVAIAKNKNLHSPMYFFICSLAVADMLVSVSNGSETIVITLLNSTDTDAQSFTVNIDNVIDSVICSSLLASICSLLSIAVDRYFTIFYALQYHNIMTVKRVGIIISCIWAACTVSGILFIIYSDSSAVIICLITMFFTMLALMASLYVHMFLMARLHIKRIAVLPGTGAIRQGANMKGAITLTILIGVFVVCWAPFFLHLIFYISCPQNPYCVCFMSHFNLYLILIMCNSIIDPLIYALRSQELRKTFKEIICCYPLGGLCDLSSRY
# [4] = target: β2-adrenergic Receptor (β2AR) (Homo sapiens, UniProt P07550); test: β2AR IGNiTR assay (β2AR-LgBiT cell lysate with SmBiT conformation-specific binder); details: SmBiT-Gs peptidomimetic fusion peptides with β2AR-LgBiT
# MOR = target: T1, MOR (Homo sapiens, UniProt P35372); assay type: biochemical; details: peptidomimetic 35 uM and 28 uM
# T1 construct: made in house; host or cells: HEK293 adhesion cells (general method)
# T1 sequence (P35372 whole entry): as the sequence (P35372 1-400, tags or fused parts left off) above
# μ-opioid receptor (μ-OR) = μ-opioid receptor (μ-OR) (Homo sapiens, UniProt P35372); test: μ-OR IGNiTR assay with Gi fusion peptide
# Chain of μ-opioid receptor (μ-OR) (P35372 whole entry, the tested form may be a part): as the sequence (P35372 1-400, tags or fused parts left off) above
# [5] = target: B2AR-SmBit (beta-2-adrenergic receptor fused to the SmBit fragment of split NANOLUC) (UniProt P07550); test: in-solution split NANOLUC complementation, detergent-extracted B2AR mixed with nanobody lysate, with and without isoproterenol
molecule,measurement,setting,value
Nb39-LgBit (Nb39 attached to LgBit on the C-terminus) (VHH),fold signal change between (+Lop) and (-Lop),[1],3.2 fold
same,fold signal change between (+Lop) and (-Lop),[2],3.8 fold
VTGYRLFEEILGSFNDCRDIIQRMHLRQYE-{Cha}-L (VTGYRLFEEILGSFNDCRDIIQRMHLRQYE[Cha]L) [Gs fusion peptide],DDR significance,[3],significant DDRs
same,agonist-dependent DDR,[4],significant DDR
same,agonist-dependent DDR,[4]; listed as peptide 2,showed agonist-dependent DDR
VTGYRLFEEILGSKKKFDAVTDIIIKNNLKDCG[Cha]F [Gi fusion peptide],binding to the MOR protein,MOR,successful binding
same,DDR,"μ-opioid receptor (μ-OR); 2 μM peptide, 0.5× μ-OR-LgBiT lysate, around 10 minutes",~4
same,DDR significance,μ-opioid receptor (μ-OR); Gi fusion peptide with μ-OR,significant DDR
VTGYRLFEEILGSKKKFN-C-SRD-C-IQRMHLRQYE-{Cha}-L [peptide 1],agonist-dependent DDR,[4],did not demonstrate agonist-dependence
B1,fold signal change between (+Iso) and (-Iso),[5],1.9 fold
